Assay results: patent publication US20260209365A1, “ANTI-COMMON GAMMA CHAIN PROTEINS AND COMPOSITIONS OF MATTER” (SINOMAB BIOSCIENCE LIMITED, priority 2023, published 2026)

B1: SM-05F: anti-γc antibody, full-length chimeric; CDR SEQ ID NO: 84, 86, 88, 92, 94, 96 (antibody, V domains shown)
VH: EVQLQQSGPELVKPGASVKIFCKTSGYTFTEYTMHWVKQSHGESLEWIGGIDPNTGGVTYNQKFKGKATLTADKSSSTAYMELRSLTSEDSAVYYCARRRRYYGYALDYWGQGTSVTVSS
VL: DVLMTQTPLSLPVSLGDQASISCRSSQSIVHNNGNTYLEWYLQKPGQSPKLLIYKVSNRFFGVPDRFSGSGSGTYFTLKISRVEAEDLGVYYCFQGSHVPWTFGGGTKLEIKR

What was measured:
Format in all cases: cell-based, human
[1] = test system: cleaved caspase 3 and μ-H2AX; assay: Western blot of cleaved caspase 3 and μ-H2AX in Ramos; conditions: IL-4 10 ng/ml; 33 nM
Description: Levels of cleaved caspase 3 (apoptotic protein) and μ-H2AX (DNA damage marker) were investigated by western blot in the Ramos B cells treated in the same paradigm. In brief, total proteins were extracted from the Ramos cells in RIPA lysis buffer supplemented with Halt™ Protease and Phosphatase Inhibitor Cocktail. Proteins were denatured and separated through electrophoresis and blotted on the nitrocellulose membrane. The membrane was blocked with 5% nonfat milk diluted in TBST, then incubated with primary antibodies diluted in 5% BSA/TBS T at 4° C. overnight in a rotating wheel. Next day, membrane was washed with PBST and incubated with secondary antibodies diluted in 5% milk/TBST for an hour at RT. Intensities of protein bands were determined using ECL substrate kit in the ChemiDoc Imaging System.

[2] = test system: granzyme and IFNγ secretion; assay: Secretion of granzymes and IFNγ from PBMC culture, ELISA
Description: Activation of T and NK cells in the PBMC culture could be studied by granzyme and IFNγ secretion [Carlin et al., Blood., 2005; 106 (12): 3874-9; Grossman et al., Blood., 2004; 104 (9): 2840-8; Keppel et al., J Immunol., 2015; 194 (4): 1954-1962; Tamang et al., Cytokine., 2006; 36 (3-4): 148-59]. Similar results are obtained in-house that IL-2 and IL-15 but not IL-21 could trigger secretion of granzyme A and IFNγ in PBMC culture (FIG. 15A-B).
Antibodies or ritlecitinib were added into the PBMC culture to investigate their inhibitory effects in the presence of IL-2 or IL-15 treatment.
Releases of cytolytic agents from PBMC culture were further evaluated by ELISA assays.

granzyme A secretion = assay: Granzyme A secretion from KHYG-1, ELISA; conditions: 3 days, 33 nM
Description: To test the efficacies of anti-γc antibodies, proliferation and granzyme A secretion were chosen as the experimental models. In brief, KHYG-1 was seeded into either 48- or 96-well plates and starved in non-IL-2 supplemented medium overnight. After replenishment with new medium, KHYG-1 was pre-incubated with anti-γc antibodies or ritlecitinib for an hour before the administration of γc cytokines for 3 days. Proliferation rate was determined by the addition of WST-8 reagent while the secretion of granzyme A was estimated by ELISA measurement.

CD23 expression = assay: qRT-PCR of CD23 expression in Ramos; conditions: IL-4 10 ng/ml, 24 hours, 33 nM
Description: Genes related to the B cell functions were investigated by quantitative real-time PCR (qRT-PCR). In brief, Ramos cells were starved in serum-free RPMI1640 medium for 24 hours and then treated with 10 ng/ml IL-4 or IL-21 for 24 hours. Total RNA was extracted by RNAzol following manufacturer's protocol. Reverse transcription was performed in 500 ng of total RNA using PrimeScript RT reagent kit and the gene expression was analyzed by quantitative real-time PCR using TB Green Premix Ex Taq in Lightcycler® 480 Real-Time PCR System. Housekeeping gene GAPDH was used for normalization.

[3] = test system: STAT phosphorylation induced by 6 γc cytokines; assay: Flow cytometry of p-STAT with full-length anti-γc antibodies in multiple cell lines; conditions: IL-2, IL-15 in KHYG-1; IL-4, IL-21 in Ramos; IL-7 in HPB-ALL; IL-9 in Jurkat; cytokines 10 ng/ml; 33 nM (5 μg/ml)
Description: Flow cytometry was employed to measure the percentage of p-STAT expressing cells after cytokine induction and anti-γc antibody treatment as previously described. IL-2 and IL-15 were tested in KHYG-1 NK cell line; IL-4 and IL-21 were tested in Ramos B cell line; IL-7 was tested in HPB-ALL T cell line; and IL-9 was tested in Jurkat T cell line.

[4] = test system: IL-15 induced STAT5 phosphorylation; assay: Inhibition of IL-15 induced STAT phosphorylation in KHYG-1 NK cell line, flow cytometry; conditions: ScFv 10 μg/ml
Excerpt: (§1) Cells were harvested and stained with FITC conjugated anti-pSTAT6, PE conjugated anti-pSTAT3 or APC con jugated anti-pSTAT5 antibodies for flow cytometry analyses. In some embodiments, the purified ScFv could block the IL-4 induced STAT6 phosphorylation in cell culture (e.g., Ramos). In some embodiments, the purified ScFv could block the IL-7 induced STAT5 phosphorylation in cell culture (e.g., HPB-ALL). In some embodiments, the purified ScFv could block the IL-9 induced STAT3 phosphorylation in cell culture (e.g., Jurkat). In some embodiments, the purified ScFv could block the IL-15 induced STAT5 phosphorylation in cell culture (e.g., KHYG-1). In some embodiments, the purified ScFv could block the IL-21 induced STAT3 phosphorylation in cell culture (e.g., Ramos).
(§2) Flow cytometry was employed to measure the percentage of p-STAT expressing cells after cytokine induction and anti-γc ScFv treatment. KHYG-1 (Creative Bioarray, Shirley, NY 11967, USA) was starved in IL-2 free RPMI1640 (ATCC modification, ThermoFisher Scientific, Waltham, MA, USA) with 10% FBS (ThermoFisher Scientific) for 2 days. Ramos, HPB-ALL and Jurkat cell lines were used directly without starvation. Cells were replenished with fresh RPMI1640 medium and pretreated with anti-γc ScFv (10 μg/mL) for an hour. After treatment with TL-4 (10 ng/ml, Sino Biological), IL-7 (50 ng/ml, Sino Biological), IL-9 (50 ng/ml, Sino Biological), IL-15 (10 ng/ml, Sino Biological) or IL-21 (10 ng/ml, Sino Biological) for 15 min, cells were fixed in 4% paraformaldehyde (PFA, Sigma, St. Louis, Missouri, USA) for 10 min, permeabilized in 0.1% Triton X-100 (Sigma) for 10 min and then stained with FITC conjugated anti-pSTAT6, PE conjugated anti-pSTAT3 or APC con jugated anti-pSTAT5 (all diluted in 1:100, Biolegend, San Diego, California, USA) for 30 min at 37° C. Percentage of p-STAT expressing cells was measured by BD FACSLyric™ Clinical Flow Cytometry System (BD Biosciences, New Jersey, USA). Data were analyzed by Flowjo (version 10, BD).
(§3) Different cell lines were used for testing. KHYG-1 refers to the NK cell line harvested from the peripheral blood of a person with aggressive NK cell leukemia. This cell line could respond to IL-2 and IL-15 stimulation in-vitro [Yamasaki et al., Leuk Res., […]; 28 (10): 1023-31]. Ramos is a human Burkitts Lymphoma cell line (CRL-1596™) and could be used as a model for IL-4 and IL-21 studies [Hui et al., Front Immunol., 2022; 13: 919854]. Jurkat is a human T lymphoblast cell line (Clone E6-1, TIB-152™) and is widely used in the T cell studies of IL-9 function. HPB-ALL is a T cell leukemia model established from the peripheral blood of a child with ALL and thymoma at diagnosis in 1973 and could be used for IL-7 functional studies.

[5] = test system: IL-9 induced STAT3 phosphorylation; assay: Inhibition of IL-9 induced STAT3 phosphorylation in Jurkat T cell line, flow cytometry; conditions: ScFv 10 μg/ml
Excerpt: as §1, §2, §3

Ramos B cells = assay: WST-8 proliferation assay, IL-4/IL-21 rescue of anti-IgM induced cell death; conditions: chimeric antibodies; 33 nM; IL-4/IL-21 10 ng/ml; 48 hours
Description: The effects of anti-γc antibodies in blocking IL-4 and IL-21 rescues of Ramos cell death after anti-IgM induced hyperactivation were investigated by WST-8 proliferation assay. In brief, Ramos cells (50000 cells in 100 l) were seeded into 96-well plate and stabilized at 37° C. for an hour. Cells were pretreated in anti-γc antibodies or ritlecitinib for an hour, followed by incubation of IL-4 (10 ng/ml) or IL-21 (10 ng/ml) and anti-IgM (2 ug/ml, #109-006-129, Jackson ImmunoResearch). Aft er 48 hours, 10 μl WST-8 reagent (ab228554, Abcam) was added to each well and incubated for 4 hours.
WST-8 could be reduced by cellular dehydrogenases to an orange formazan product, which the amount of formazan produced is directly proportional to the number of living Ramos cells. Optical density (OD) of each well was measured by absorbance at 450 nm using Varioskan LUX Multimode Microplate Reader (ThermoFisher Scientific).

[6] = test system: IL-4 induced STAT6 phosphorylation; assay: Inhibition of IL-4 induced STAT phosphorylation in Ramos B cell line, flow cytometry; conditions: ScFv 10 μg/ml
Excerpt: as §1, §2, §3

[7] = test system: IL-21 induced STAT3 phosphorylation; assay: Inhibition of IL-21 induced STAT phosphorylation in Ramos B cell line, flow cytometry; conditions: ScFv 10 μg/ml
Excerpt: as §1, §2, §3

[8] = test system: IL-7 induced STAT5 phosphorylation; assay: Inhibition of IL-7 induced STAT5 phosphorylation in HPB-ALL T cell line, flow cytometry; conditions: ScFv 10 μg/ml
Excerpt: as §1, §2, §3

Molecule	block of IL-4 protective effects, μ-H2AX re-induced [1]	suppression of IL-2 and IL-15 induced secretion of granzyme A and IFNγ ([2]; IL-2, IL-15 20 ng/ml, three days, 33 nM)	suppression of granzyme B secretion ([2]; IL-2 or IL-15, 33 nM, humanized antibodies)	suppression of IL-2, IL-15 and IL-21 induced granzyme A secretion (granzyme A secretion)	suppression of IL-4 induced CD23 expression (CD23 expression)	block of STAT phosphorylation [3]	p-STAT5 inhibition (%) [4]	p-STAT3 inhibition (%) [5]	block of IL-4 and IL-21 rescue of anti-IgM induced cell death (WST-8) (Ramos B cells)	p-STAT6 inhibition (%) [6]	p-STAT3 inhibition (%) [7]	p-STAT5 inhibition (%) [8]
C=CC(=O)N1C[C@H](Nc2ncnc3[nH]ccc23)CC[C@@H]1C [ritlecitinib]	could block IL-4 protective effects	significantly reduced	superior suppression to granzyme B secretion	significantly suppress IL-2, IL-15 and IL-21 induced granzyme A secretion	significantly suppress IL-4 induced CD23 expression							
B1						barely demonstrated strong inhibitory effects	43.73%	92.36%	could block the effects of IL-4 and IL-21	45.99%	78.97%	99.42%
